# Columns and labels:
# Test in all cases: BLI
# [1] = biological target: biotinylated human FcγRIIb extracellular domain with AviTag (human) (UniProt P31994)
# [2] = biological target: biotinylated human FcγRIIa-131R extracellular domain with AviTag (human) (UniProt P12318)
# [3] = biological target: biotinylated human FcγRIIIa-176V extracellular domain with AviTag (human) (UniProt P08637)
# [4] = biological target: biotinylated human FcγRIIa-131H extracellular domain with AviTag (human) (UniProt P12318)
# Chain of UniProt P31994 (P31994 43-217): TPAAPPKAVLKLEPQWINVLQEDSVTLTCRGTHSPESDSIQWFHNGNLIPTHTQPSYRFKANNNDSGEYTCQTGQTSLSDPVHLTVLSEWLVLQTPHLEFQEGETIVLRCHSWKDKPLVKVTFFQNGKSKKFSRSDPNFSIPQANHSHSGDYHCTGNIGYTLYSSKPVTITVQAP
# Chain of UniProt P08637 (P08637 17-208 F176V): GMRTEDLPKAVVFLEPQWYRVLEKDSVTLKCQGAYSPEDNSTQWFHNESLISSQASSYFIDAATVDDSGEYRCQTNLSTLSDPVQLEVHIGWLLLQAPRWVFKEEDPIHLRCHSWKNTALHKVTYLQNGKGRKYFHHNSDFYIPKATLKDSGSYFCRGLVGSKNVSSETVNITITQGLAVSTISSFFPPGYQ
Kd [1] [nM],Kd [2] [nM],Kd [3] [nM],Kd [4] [nM],Substance
310,,,,human IgG1 trastuzumab with Fc mutation P238D (antibody)
360,610,610,290,"human IgG1 trastuzumab, wild-type Fc (antibody)"
,210,,120,human IgG1 trastuzumab with Fc mutation G236A (antibody)

# From publication PMC10922510
